Measurements: patent publication US20050069951A1 (KARO BIO, published 2005)
Where no end group is shown, it is not given here. The star is where a group is joined. Biotin = O=C1N[C@H]2[C@H](CS[C@H]2CCCCC(=O)*)N1

Experiments:
[1] = molecular target: T1, Agrobacterium faecalis beta-glucosidase (Agrobacterium faecalis, UniProt P12614 1-459, biotinylated with Sulfo NHS-LC-LC biotin, sites not stated); assay: phage ELISA, biotinylated target on streptavidin plate
T1 construct: captured on streptavidin beads or plates; also called β-glucosidase
T1 sequence: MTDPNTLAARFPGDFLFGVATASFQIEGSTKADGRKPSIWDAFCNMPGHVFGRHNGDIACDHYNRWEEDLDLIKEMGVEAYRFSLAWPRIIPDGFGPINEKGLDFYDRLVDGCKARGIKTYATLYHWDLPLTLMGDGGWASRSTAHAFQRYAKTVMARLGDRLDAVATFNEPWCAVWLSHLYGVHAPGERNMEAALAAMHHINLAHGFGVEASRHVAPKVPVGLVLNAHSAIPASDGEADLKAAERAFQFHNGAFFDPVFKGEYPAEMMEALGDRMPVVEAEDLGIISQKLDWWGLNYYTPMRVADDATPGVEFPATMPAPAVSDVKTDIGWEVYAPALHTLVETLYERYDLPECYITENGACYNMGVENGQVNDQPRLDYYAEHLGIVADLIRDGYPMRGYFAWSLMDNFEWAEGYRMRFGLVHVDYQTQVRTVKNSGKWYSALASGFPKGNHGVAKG

[2] = molecular target: T2, E. coli proline tRNA synthetase (E. coli, UniProt P16659 1-572); assay: phage ELISA on immobilized ProRS and a variety of proteins
T2 construct: also called ProRS; E. coli ProRS
T2 sequence: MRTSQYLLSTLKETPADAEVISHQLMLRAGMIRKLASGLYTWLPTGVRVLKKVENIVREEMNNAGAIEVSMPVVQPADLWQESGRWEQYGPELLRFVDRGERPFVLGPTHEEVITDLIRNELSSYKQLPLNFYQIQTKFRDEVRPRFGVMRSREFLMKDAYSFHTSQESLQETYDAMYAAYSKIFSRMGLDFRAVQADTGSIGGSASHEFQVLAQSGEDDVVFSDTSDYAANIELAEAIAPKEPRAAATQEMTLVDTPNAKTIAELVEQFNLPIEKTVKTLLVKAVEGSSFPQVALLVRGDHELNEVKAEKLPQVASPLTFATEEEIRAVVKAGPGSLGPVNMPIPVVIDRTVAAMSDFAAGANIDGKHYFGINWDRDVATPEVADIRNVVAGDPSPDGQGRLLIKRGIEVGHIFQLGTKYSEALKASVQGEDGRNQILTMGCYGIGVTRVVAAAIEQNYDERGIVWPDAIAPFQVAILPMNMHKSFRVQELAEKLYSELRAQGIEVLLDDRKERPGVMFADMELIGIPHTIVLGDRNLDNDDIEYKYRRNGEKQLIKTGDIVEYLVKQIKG

[3] = molecular target: T3, carboxypeptidase B from pig pancreas (pig, UniProt P09955 111-416); assay: cross reactivity phage ELISA
T3 sequence (looked up): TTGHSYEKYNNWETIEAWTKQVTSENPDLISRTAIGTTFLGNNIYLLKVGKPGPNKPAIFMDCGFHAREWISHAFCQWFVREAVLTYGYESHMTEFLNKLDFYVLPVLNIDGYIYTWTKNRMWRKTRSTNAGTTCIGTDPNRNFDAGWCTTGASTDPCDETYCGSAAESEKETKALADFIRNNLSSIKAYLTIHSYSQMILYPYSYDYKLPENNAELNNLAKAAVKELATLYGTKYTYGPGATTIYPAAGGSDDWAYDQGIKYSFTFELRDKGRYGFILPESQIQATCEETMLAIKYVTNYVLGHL

[4] = molecular target: T4, Yeast alcohol dehydrogenase (yeast, UniProt P00330 2-348); assay: cross reactivity phage ELISA
T4 sequence (looked up): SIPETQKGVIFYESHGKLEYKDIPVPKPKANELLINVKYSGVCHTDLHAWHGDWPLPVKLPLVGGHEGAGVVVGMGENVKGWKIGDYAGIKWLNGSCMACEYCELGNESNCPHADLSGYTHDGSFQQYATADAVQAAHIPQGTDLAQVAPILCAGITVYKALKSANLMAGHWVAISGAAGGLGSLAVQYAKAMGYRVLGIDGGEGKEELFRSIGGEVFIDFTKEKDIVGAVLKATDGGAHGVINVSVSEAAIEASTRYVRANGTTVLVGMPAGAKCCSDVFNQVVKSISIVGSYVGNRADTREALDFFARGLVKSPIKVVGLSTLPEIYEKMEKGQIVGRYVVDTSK

biotinylated ProRS = molecular target: T5, biotinylated ProRS (E. coli, UniProt P16659 1-572, biotinylated with Sulfo NHS-LC-LC biotin, sites not stated); assay: phage ELISA, biotinylated target
T5 construct: also called biotinylated E. coli ProRS
T5 sequence: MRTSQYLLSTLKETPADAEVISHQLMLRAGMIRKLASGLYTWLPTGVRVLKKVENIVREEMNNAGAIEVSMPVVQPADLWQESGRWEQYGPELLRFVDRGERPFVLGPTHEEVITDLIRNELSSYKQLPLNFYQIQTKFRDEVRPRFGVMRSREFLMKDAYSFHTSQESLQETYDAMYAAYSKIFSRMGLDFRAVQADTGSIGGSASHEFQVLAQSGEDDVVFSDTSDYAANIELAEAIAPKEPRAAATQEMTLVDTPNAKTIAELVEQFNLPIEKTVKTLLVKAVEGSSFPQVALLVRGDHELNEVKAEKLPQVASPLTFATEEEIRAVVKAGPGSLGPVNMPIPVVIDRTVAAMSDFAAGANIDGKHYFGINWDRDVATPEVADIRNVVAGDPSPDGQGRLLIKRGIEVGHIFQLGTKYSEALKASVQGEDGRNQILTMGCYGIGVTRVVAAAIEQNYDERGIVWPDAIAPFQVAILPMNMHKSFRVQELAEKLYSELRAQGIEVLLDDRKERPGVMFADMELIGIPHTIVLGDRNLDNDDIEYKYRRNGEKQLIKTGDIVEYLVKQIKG

[5] = molecular target: T2, E. coli proline tRNA synthetase; assay: ELSA, immobilized targets (legend of FIG. 17)
streptavidin = streptavidin (UniProt P22629 37-163, limits assumed); assay: ELSA: biotinylated peptide pre-complexed with SA-AP, immobilized target
streptavidin, sequence (P22629 37-163 limits assumed): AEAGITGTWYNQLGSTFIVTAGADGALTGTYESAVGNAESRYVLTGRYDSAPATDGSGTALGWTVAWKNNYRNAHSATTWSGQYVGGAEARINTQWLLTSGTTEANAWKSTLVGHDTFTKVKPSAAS

GST = molecular target: T6, GST (UniProt P08515 1-218 = GST); assay: as above
T6 construct: also called glutathione-S-transferase
T6 sequence (P08515 whole entry): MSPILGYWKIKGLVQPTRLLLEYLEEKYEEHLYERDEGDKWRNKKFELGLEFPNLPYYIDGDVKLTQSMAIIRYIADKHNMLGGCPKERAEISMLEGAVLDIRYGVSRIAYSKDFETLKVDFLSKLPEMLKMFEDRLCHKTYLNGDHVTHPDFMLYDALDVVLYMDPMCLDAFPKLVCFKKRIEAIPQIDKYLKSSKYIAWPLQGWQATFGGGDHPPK

[6] = molecular target: T2, E. coli proline tRNA synthetase; assay: ELSA, immobilized ProRS
[7] = molecular target: T2, E. coli proline tRNA synthetase; assay: tRNA charging assay (enzyme inhibition), competitive in respect to proline

SSATDWGRVYSILSR (on M13 phage; group 1) [phage-displayed peptide SSATDWGRVYSILSR (R library)]: binds [1].

SSASYAPWPIYFASR (on M13 phage; group 2) [phage-displayed peptide SSASYAPWPIYFASR (W library)]: binds [1].

SRLCEVWPQTAGCSR (on M13 phage) [ProRS-binding phage peptide SRLCEVWPQTAGCSR (X10C library)]: binds [2].

For SSFRELKPGWWSYSR (on M13 phage) [phage-displayed peptide SSFRELKPGWWSYSR (P library)], the “fold ELISA signal on the specific target vs any other targets tested” value (shortened to “fold ELISA signal on the specific target”) [3] was ≥ 10 fold.

SSSVPFAPWPVYASR (on M13 phage; group 2) [phage-displayed peptide SSSVPFAPWPVYASR (P library)]: binds [1].

SSEPFSVWPIYKHSR (on M13 phage; group 2) [phage-displayed peptide SSEPFSVWPIYKHSR (W library)]: binds [1].

For SVSVGMKPSPRP (on M13 phage) [phage-displayed peptide SVSVGMKPSPRP (PHD12 library)], the “fold ELISA signal on the specific target” value [4] was ≥ 10 fold.

SSSTDWLNVWRQLSR (on M13 phage; group 1) [phage-displayed peptide SSSTDWLNVWRQLSR (N library)]: binds [1].

SRWCSLRPQDEGCSR (on M13 phage) [ProRS-binding phage peptide SRWCSLRPQDEGCSR (X10C library)]: binds [2].

SSQTDWRKIFQSLSR (on M13 phage; group 1) [phage-displayed peptide SSQTDWRKIFQSLSR (K library)]: binds [1].

SSERGSGDRGEKGSR (on M13 phage) [phage-displayed peptide SSERGSGDRGEKGSR (D library)]: binds (biotinylated ProRS).

SRWCELWSQDIGCSR (on M13 phage) [ProRS-binding phage peptide SRWCELWSQDIGCSR (X10C library)]: binds [2].

For SRQVEVFKPWPVYSR (on M13 phage; group 2) [phage-displayed peptide SRQVEVFKPWPVYSR (K library)], the “fold ELISA signal on the specific target” value [4] was ≥ 10 fold.

SRWCELWPEGSGCSR (on M13 phage) [ProRS-binding phage peptide SRWCELWPEGSGCSR (P library)]: binds [2].

SRWCDIWPDTGSCSR (on M13 phage) [ProRS-binding phage peptide SRWCDIWPDTGSCSR (P library)]: binds [2].

LYSWPDEQYERP (also: biotinylated, position not given here, also called TyrRS1B; TyrRS BioKey) [biotinylated peptide TyrRS1]: no binding [5].

SRDWGFWDWGVDRSR (on M13 phage) [phage-displayed peptide SRDWGFWDWGVDRSR (D library)]: binds (biotinylated ProRS).

B1: ProRS-binding phage peptide SRVCAIWPDLDGCSR (X10C library) (peptide)
peptide: SRVCAIWPDLDGCSR
notes: on M13 phage; SR linkers included as printed; also called most often isolated phage
B1: binds [2].

SSTSLPFNRWPIYSR (on M13 phage; group 2) [phage-displayed peptide SSTSLPFNRWPIYSR (N library)]: binds [1].

For SSWQGNVLLGNWISR (on M13 phage) [phage-displayed peptide SSWQGNVLLGNWISR (L library)], the “fold ELISA signal on the specific target” value [4] was ≥ 10 fold.

SRWCEVWPDKRWCSR (on M13 phage) [ProRS-binding phage peptide SRWCEVWPDKRWCSR (P library)]: binds [2].

SREWHFWRDYNPTSR (on M13 phage) [phage-displayed peptide SREWHFWRDYNPTSR (R library)]: binds (biotinylated ProRS).

SSGAFKPWPVYSFSR (on M13 phage; group 2) [phage-displayed peptide SSGAFKPWPVYSFSR (W library)]: binds [1].

SRLCDIMPQTVGCSR (on M13 phage) [ProRS-binding phage peptide SRLCDIMPQTVGCSR (P library)]: binds [2].

B2: biotinylated UL44 surrogate ligand peptide (peptide)
peptide: Biotin-SGSGEHVCSWGWGRC
modifications: not fully specified (bridges); cysteine pairing not given here
notes: synthetic; pre-complexed with streptavidin alkaline phosphatase (SA-AP) in the ELSA; also called UL44 BioKey
B2: no binding (streptavidin); no binding (GST); no binding [6].

With SSSFKPWPIYLGSSR (on M13 phage; group 2) [phage-displayed peptide SSSFKPWPIYLGSSR (P library)] the “fold ELISA signal on the specific target” value [4] was ≥ 10 fold.

In the case of SRLLEVSPGWWQMSR (on M13 phage) [phage-displayed peptide SRLLEVSPGWWQMSR (P library)], the “fold ELISA signal on the specific target” value [3] is reported as ≥ 10 fold.

B3: non-biotinylated ProRS peptide (peptide)
peptide: VCAIWPDLDGC
notes: also called non-biotinylated ProRS surrogate ligand
B3 was tested, and the Ki [7] was > 500 µM.

With SSWGDYFNWRDGLSR (on M13 phage) [phage-displayed peptide SSWGDYFNWRDGLSR (N library)] the “fold ELISA signal on the specific target” value [3] was ≥ 10 fold.

With SSNYWWQSPVLSRHSR (on M13 phage) [phage-displayed peptide SSNYWWQSPVLSRHSR (CWL library)] the “fold ELISA signal on the specific target” value [4] was ≥ 10 fold.

SRDWGFWRLPESMASR (on M13 phage) [phage-displayed peptide SRDWGFWRLPESMASR (CWL library)]: binds (biotinylated ProRS).

For SSLLNESRLQWSTSR (on M13 phage) [phage-displayed peptide SSLLNESRLQWSTSR (R library)], the “fold ELISA signal on the specific target” value [4] was ≥ 10 fold.
